Experimental data reported in the supplement of paper PMC11780869.

Tested on: Bacillus subtilis
Assay: cleaved RNA product abundance (RNA/gDNA barcode ratio) relative to median wild-type variant (ratio to wild type); higher = more accumulation of the downstream cleavage product
Conditions: cleavage site: cggR-gapA (positions -7 to +36 mutated)
Method in brief: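 Oligos with a 9% error rate were used to build barcoded, mutagenized RNase Y cleavage-site windows within truncated aprE or tetM reporter mRNAs, which were integrated into the B. subtilis chromosome. Cultures were grown in LB at 37°C between OD600 0.0003 and 0.3. Cleaved RNA was gel-selected, reverse transcribed and barcode-sequenced, as were genomic DNA barcodes, and UMIs were collapsed. Cleaved product abundance is the scaled RNA:gDNA barcode ratio, with the median construct carrying the unmutated site as reference.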

[1] = experiment (reporter, strain, medium): exp 2b: truncated aprE reporter, strain BJT200
[2] = experiment (reporter, strain, medium): exp 4a: truncated aprE reporter, strain BJT201 with 2% xylose (RNase J1 expressed)
[3] = experiment (reporter, strain, medium): exp 6: tetM reporter, strain 168

Sequence | cleaved RNA product abundance [1] | cleaved RNA product abundance [2] | cleaved RNA product abundance [3]
ACAGACGAAGGAGCCGCAAAGAAGTTATTAAGAGATGAATAAGCCCTCAATATAAATATCTCTCACTTATTTAAA | 0.1 | 0.0929 | 
ACAGACGAAGGAGCCGCAAAGAAGTTATTAAGAGATGAATAATACCTCAATATAAATATCTCTCACTTATTTAAA | 0.106 | 0.109 | 
ACAGACGAAGGAGCCGCAAAGAAGTTATTAAGAGATGAATAATACCTCAATATATATATCTCTCACTTATTTAAA |  | 0.174 | 
ACAGACGAAGGAGCCGCAAAGAAGTTATTAAGAGATGAATAATACCTCAATTTAAATATCTCTCACTTATTTAAA |  | 0.0323 | 
ACAGACGAAGGAGCCGCAAAGAAGTTATTAAGAGATGAATAATCACTCAATATAAATATCTCTCACTTATTTAAA | 0.0955 | 0.127 | 
ACAGACGAAGGAGCCGCAAAGAAGTTATTAAGAGATGAATAATCCATCAATATAAATATCTCTCACTTATTTAAA | 0.142 | 0.19 | 
ACAGACGAAGGAGCCGCAAAGAAGTTATTAAGAGATGAATAATCCCACAATATAAATATCTCTCACTTATTTAAA | 0.0945 | 0.1 | 
ACAGACGAAGGAGCCGCAAAGAAGTTATTAAGAGATGAATAATCCCGCAATATAAATATCTCTCACTTATTTAAA |  | 0.154 | 
ACAGACGAAGGAGCCGCAAAGAAGTTATTAAGAGATGAATAATCCCTAAATATAAATATCTCTCACTTATTTAAA | 0.141 | 0.158 | 0.179
ACAGACGAAGGAGCCGCAAAGAAGTTATTAAGAGATGAATAATCCCTCAAAATAAATATCTCTCACTTATTTAAA | 0.101 | 0.106 | 
ACAGACGAAGGAGCCGCAAAGAAGTTATTAAGAGATGAATAATCCCTCAACATAAATATCTCTCACTTATTTAAA | 0.111 | 0.132 | 
ACAGACGAAGGAGCCGCAAAGAAGTTATTAAGAGATGAATAATCCCTCAAGATAAATATCTCTCACTTATTTAAA |  | 0.112 | 
ACAGACGAAGGAGCCGCAAAGAAGTTATTAAGAGATGAATAATCCCTCAATAAAAATATCTCTCACTTATTTAAA |  | 0.113 | 
ACAGACGAAGGAGCCGCAAAGAAGTTATTAAGAGATGAATAATCCCTCAATATAAAAATCTCTCACTTATTTAAA | 0.103 | 0.181 | 
ACAGACGAAGGAGCCGCAAAGAAGTTATTAAGAGATGAATAATCCCTCAATATAAAGATCTCTCACTTATTTAAA |  | 0.186 | 
ACAGACGAAGGAGCCGCAAAGAAGTTATTAAGAGATGAATAATCCCTCAATATAAATACCTCTCACTTATTTAAA |  | 0.126 | 
ACAGACGAAGGAGCCGCAAAGAAGTTATTAAGAGATGAATAATCCCTCAATATAAATAGCTCTCACTTATTTAAA |  | 0.106 | 
ACAGACGAAGGAGCCGCAAAGAAGTTATTAAGAGATGAATAATCCCTCAATATAAATATATCTCACTTATTTAAA |  | 0.193 | 
ACAGACGAAGGAGCCGCAAAGAAGTTATTAAGAGATGAATAATCCCTCAATATAAATATCTCTCACTATTTAAAG |  | 0.151 | 
ACAGACGAAGGAGCCGCAAAGAAGTTATTAAGAGATGAATAATCCCTCAATATAAATATCTCTCACTTATTTAAA | 0.111 | 0.147 | 0.135

Sequence | cleaved RNA product abundance [1] | cleaved RNA product abundance [2] | cleaved RNA product abundance [3]
ACAGACGAAGGAGCCGCAAAGAAGTTATTAAGAGATGAATAATCCCTCAATATAAATGTCTCTCACTTATTTAAA |  | 0.0916 | 
ACAGACGAAGGAGCCGCAAAGAAGTTATTAAGAGATGAATAATCCCTCAATATAAATTTCTCTCACTTATTTAAA |  | 0.164 | 
ACAGACGAAGGAGCCGCAAAGAAGTTATTAAGAGATGAATAATCCCTCAATATAACTATCTCTCACTTATTTAAA |  | 0.0935 | 
ACAGACGAAGGAGCCGCAAAGAAGTTATTAAGAGATGAATAATCCCTCAATATAATTATCTCTCACTTATTTAAA |  | 0.118 | 
ACAGACGAAGGAGCCGCAAAGAAGTTATTAAGAGATGAATAATCCCTCAATATACATATCTCTCACTTATTTAAA | 0.102 | 0.136 | 
ACAGACGAAGGAGCCGCAAAGAAGTTATTAAGAGATGAATAATCCCTCAATATAGATATCTCTCACTTATTTAAA |  | 0.147 | 
ACAGACGAAGGAGCCGCAAAGAAGTTATTAAGAGATGAATAATCCCTCAATATATATATCTCTCACTTATTTAAA | 0.129 | 0.14 | 
ACAGACGAAGGAGCCGCAAAGAAGTTATTAAGAGATGAATAATCCCTCAATCTAAATATCTCTCACTTATTTAAA |  | 0.0377 | 
ACAGACGAAGGAGCCGCAAAGAAGTTATTAAGAGATGAATAATCCCTCAATGTAAATATCTCTCACTTATTTAAA | 0.0969 | 0.0609 | 
ACAGACGAAGGAGCCGCAAAGAAGTTATTAAGAGATGAATAATCCCTCAATTTAAATATCTCTCACTTATTTAAA | 0.0971 | 0.0573 | 
ACAGACGAAGGAGCCGCAAAGAAGTTATTAAGAGATGAATAATCCCTCACTATAAATATCTCTCACTTATTTAAA |  | 0.131 | 
ACAGACGAAGGAGCCGCAAAGAAGTTATTAAGAGATGAATAATCCCTCATTATAAATATCTCTCACTTATTTAAA |  | 0.177 | 
ACAGACGAAGGAGCCGCAAAGAAGTTATTAAGAGATGAATAATCCCTCCATATAAATATCTCTCACTTATTTAAA | 0.0792 |  | 
ACAGACGAAGGAGCCGCAAAGAAGTTATTAAGAGATGAATAATCCCTCGATATAAATATCTCTCACTTATTTAAA |  | 0.0848 | 
ACAGACGAAGGAGCCGCAAAGAAGTTATTAAGAGATGAATAATCCCTCTATATAAATATCTCTCACTTATTTAAA |  | 0.118 | 
ACAGACGAAGGAGCCGCAAAGAAGTTATTAAGAGATGAATAATCCCTGAATATAAATATCTCTCACTTATTTAAA |  | 0.0805 | 
ACAGACGAAGGAGCCGCAAAGAAGTTATTAAGAGATGAATAATCCCTTAATATAAATATCTCTCACTTATTTAAA | 0.727 | 0.431 | 
ACAGACGAAGGAGCCGCAAAGAAGTTATTAAGAGATGAATAATCCGTCAATATAAATATCTCTCACTTATTTAAA | 0.0978 | 0.0917 | 
ACAGACGAAGGAGCCGCAAAGAAGTTATTAAGAGATGAATAATCCTTCAATATAAATATCTCTCACTTATTTAAA | 0.105 | 0.211 | 
ACAGACGAAGGAGCCGCAAAGAAGTTATTAAGAGATGAATAATCGCTCAATATAAATATCTCTCACTTATTTAAA |  | 0.0997 | 

Sequence | cleaved RNA product abundance [1] | cleaved RNA product abundance [2] | cleaved RNA product abundance [3]
ACAGACGAAGGAGCCGCAAAGAAGTTATTAAGAGATGAATAATCTCTCAATATAAATATCTCTCACTTATTTAAA | 0.718 | 0.924 | 
ACAGACGAAGGAGCCGCAAAGAAGTTATTAAGAGATGAATAATGCCTCAATATAAATATCTCTCACTTATTTAAA |  | 0.1 | 
ACAGACGAAGGAGCCGCAAAGAAGTTATTAAGAGATGAATAATTCCTCAATATAAATATCTCTCACTTATTTAAA | 0.0877 | 0.106 | 
ACAGACGAAGGAGCCGCAAAGAAGTTATTAAGAGATGAATACTCCCTCAATATAAATATCTCTCACTTATTTAAA |  | 0.0945 | 
ACAGACGAAGGAGCCGCAAAGAAGTTATTAAGAGATGAATAGTCCCTCAATATAAATATCTCTCACTTATTTAAA | 0.0992 | 0.136 | 
ACAGACGAAGGAGCCGCAAAGAAGTTATTAAGAGATGAATATTCCCTCAATATAAATATCTCTCACTTATTTAAA |  | 0.0954 | 
ACAGACGAAGGAGCCGCAAAGAAGTTATTAAGAGATGAATCATCCCTCAATATAAATATCTCTCACTTATTTAAA |  | 0.139 | 
ACAGACGAAGGAGCCGCAAAGAAGTTATTAAGAGATGAATGATCCCTCAATATAAATATCTCTCACTTATTTAAA |  | 0.0837 | 
ACAGACGAAGGAGCCGCAAAGAAGTTATTAAGAGATGAATTATCCCTCAATATAAATATCTCTCACTTATTTAAA | 0.102 | 0.183 | 
ACAGACGAAGGAGCCGCAAAGAAGTTATTAAGAGATGACTAATCCCTCAATATAAATATCTCTCACTTATTTAAA | 0.082 | 0.0924 | 
ACAGACGAAGGAGCCGCAAAGAAGTTATTAAGAGATGAGTAATCCCTCAATATAAATATCTCTCACTTATTTAAA |  | 0.241 | 
ACAGACGAAGGAGCCGCAAAGAAGTTATTAAGAGATGATTAATCCCTCAATATAAATATCTCTCACTTATTTAAA |  | 0.173 | 
ACAGACGAAGGAGCCGCAAAGAAGTTATTAAGAGATGCATAATCCCTCAATATAAATATCTCTCACTTATTTAAA | 0.117 | 0.158 | 
ACAGACGAAGGAGCCGCAAAGAAGTTATTAAGAGATGTATAATCCCTCAATATAAATATCTCTCACTTATTTAAA |  | 0.229 | 
ACAGACGAAGGAGCCGCAAAGAAGTTATTAAGAGATTAATAATCCCTCAATATAAATATCTCTCACTTATTTAAA | 0.116 | 0.115 | 
ACAGACGAAGGAGCCGCAAAGAAGTTATTAAGAGCTGAATAATCCCTCAATATAAATATCTCTCACTTATTTAAA | 0.0922 |  | 
ACAGACGAAGGAGCCGCAAAGAAGTTATTAAGAGGTGAATAATCCCTCAATATAAATATCTCTCACTTATTTAAA |  | 0.253 | 
ACAGACGAAGGAGCCGCAAAGAAGTTATTAAGAGTTGAATAATCCCTCAATATAAATATCTCTCACTTATTTAAA |  | 0.0897 | 
ACAGACGAAGGAGCCGCAAAGAAGTTATTAAGATATGAATAATCCCTAAATATAAATATCTCTCACTTATTTAAA |  | 0.101 | 
